Tests used:
[1] = target: Human interleukin-18 (recombinant human IL-18) (human) (UniProt Q14116); experiment: cell-based or functional assay
[2] = target: Human interleukin-18 (recombinant human IL-18) (human) (UniProt Q14116); experiment: ELISA, IL-18 bp-Fc coated at 0.5 ug/ml, human IL-18 added at 100 ng/ml, antibody titrated, detection anti-rat IgG HRP, Abs 490 nm

Chain of Human interleukin-18 (recombinant human IL-18) (human) (Q14116 37-193 limits assumed): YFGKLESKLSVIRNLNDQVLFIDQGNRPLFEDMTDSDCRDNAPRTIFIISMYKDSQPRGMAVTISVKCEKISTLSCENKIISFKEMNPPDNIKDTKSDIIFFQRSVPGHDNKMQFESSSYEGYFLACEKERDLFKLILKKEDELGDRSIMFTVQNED

B1: Parental rat antibody 2C10 (antibody, from another filing, V domains shown)
VH: EVQLQQSGAELVRPGTSVKLSCKVSGEISTGYYFHFVRRRPGQGLEWIGRIDPEDDSTKYAERFKDRATLTAQTSSNTAYLNLSSLTSEDTATYFCTTWRIYRDSSGRPFYVMDAWGQGASVTVSS
VL: DIQMTQSPASLSASLGETVSIECLASEDIYTYLTWYQQKPGKSPQLLIYGANKLQDGVPSRFSGSGSGTQYSLKISGIQPEDEGDYFCLQGSKFPLTFGSGTKLEIKR
With B1 as the binder, how does the IC50, LPS-stimulated IFNγ release, human PBMC, Donor 1 10% serum [1] read?
The IC50, LPS-stimulated IFNγ release, human PBMC, Donor 1 10% serum was 0.023.

And the IC50, LPS-stimulated IFNγ release, human PBMC, Donor 1 25% serum [1]?
Its IC50, LPS-stimulated IFNγ release, human PBMC, Donor 1 25% serum is 0.069.

And the IC50, LPS-stimulated IFNγ release, human PBMC, Donor 3 10% serum [1]?
The IC50, LPS-stimulated IFNγ release, human PBMC, Donor 3 10% serum was 0.033.

And the IC50, LPS-stimulated IFNγ release, human PBMC, Donor 3 25% serum [1]?
The IC50, LPS-stimulated IFNγ release, human PBMC, Donor 3 25% serum was 0.086.

And the complete inhibition of IL-18 mediated IFNγ release, LPS-stimulated human PBMC, 10% or 25% human serum [1]?
Its complete inhibition of IL-18 mediated IFNγ release, LPS-stimulated human PBMC, 10% or 25% human serum is over 1 µg/mL.

What about the inhibition of LPS-induced IFNγ production in human PBMC [1] of the same binder?
The inhibition of LPS-induced IFNγ production in human PBMC was 1 µg/mL.

And the EC50 (read off the curve) [2]?
The EC50 (read off the curve) was 0.04 µg/mL.

— patent US8133978
